This is an account of results in PMC7736808.

What is called Kd is the concentration at which binding is half-saturated. Low readings indicate tighter binding, high ones weaker binding.

Test in all cases: MST
Details in all cases: 5-bromo-dC at every C, MST at 22 C, 5 nM labeled DNA, 0.5 mg/ml BSA, 0.05% Tween 20, 5 mM HEPES pH 7.5, 20 mM NaCl (Table 2), 20 mM HEPES pH 8.0, 100 mM NaCl (Table 4)

The target of data set [1] is T1, hZαADAR1 (human) (UniProt P55265).
T1 sequence: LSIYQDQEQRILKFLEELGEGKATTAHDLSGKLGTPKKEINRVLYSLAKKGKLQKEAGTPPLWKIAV

The target in a further data set is vvZαE3L (UniProt P21605).
In data set [2] the target is T2, GH5*:α3NADAR1-PW K41G;S42G;R43G;K53A;R95A;del65;D66K;L67K;Q68E;K70N;L71R;S72V;I73L;R74Y;R75S;S91P;F94W (/ human ADAR1 α3N and β-wing residues) (UniProt P02259).
T2 sequence: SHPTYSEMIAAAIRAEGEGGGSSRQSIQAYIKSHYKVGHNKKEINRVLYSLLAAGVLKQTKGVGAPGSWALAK

Data set [3] has as its target T1, hZαADAR1 (human). The source holds these as a separate data set.

Consider “TCGCGCGCGCGCGCGCGCGCGCGCGCGCGCG (double strand) [Z-DNA, [d(5'-Cy5-T(Br5CG)15)]2]”, for which the Kd with hZαADAR1 (human) [1] stood at 18 nM; in the data set with vvZαE3L, 2000 nM; in data set [2] it was 1800 nM; in the data set with hZαADAR1 (human) [3], 600 nM.
